Results taken from publication PMC2115223.

Target: diphtheria toxin receptor (14.5-kD protein of Vero cells) (African green monkey (endogenous in Vero))
Test: radioligand binding

diphtheria toxin receptor (14.5-kD protein of Vero cells) (African green monkey (endogenous in Vero)), sequence (Q09118 20-208 limits assumed): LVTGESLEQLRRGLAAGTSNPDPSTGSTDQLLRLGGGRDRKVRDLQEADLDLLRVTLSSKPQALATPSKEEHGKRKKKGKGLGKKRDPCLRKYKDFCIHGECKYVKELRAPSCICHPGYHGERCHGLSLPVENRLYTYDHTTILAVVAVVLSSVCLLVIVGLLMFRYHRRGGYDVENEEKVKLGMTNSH

For CRM228 (natural protein), which fold less potent than nicked CRM197 in competition is on record?
Its fold less potent than nicked CRM197 in competition is 200 times.
